# Data as given in the Human Domainome abundance scans (Beltran et al. 2025).
# ± gives the uncertainty stated by the source.
# B1: Homeobox protein SIX3, residues 212 to 262; numbered along this chain, O95343 (parent)
# chain: CFKERTRSLLREWYLQDPYPNPSKKRELAQATGLTPTQVGNWFKNRRQRDR
# Variants of: B1
# Assay: abundance fitness (aPCA) (normalised: wild type 0, dead -1); higher = more abundant; growth selection in yeast, the domain comes from the species named
# Conditions: Homo sapiens
row,Variant,abundance fitness
1,P36C,-0.241 ± 0.051
2,P36R,-0.307 ± 0.049
3,P36G,-0.596 ± 0.043
4,P36T,-0.066 ± 0.072
5,P36W,-0.536 ± 0.1
6,P36N,-0.815 ± 0.34
7,P36D,-0.638 ± 0.19
8,P36E,0.066 ± 0.046
9,P36K,-0.048 ± 0.074
10,P36A,-0.226 ± 0.09
11,P36Q,-0.235 ± 0.12
12,P36M,0.03 ± 0.074
13,P36I,-0.096 ± 0.11
14,P36H,-0.305 ± 0.13
15,P36L,-0.087 ± 0.062
16,P36S,-0.274 ± 0.07
17,P36F,0.184 ± 0.075
18,Q38T,-0.43 ± 0.15
19,Q38V,-0.418 ± 0.058
20,Q38G,-0.761 ± 0.1
21,Q38H,-0.81 ± 0.23
22,Q38P,-1.13 ± 0.18
23,Q38W,-0.774 ± 0.081
24,Q38K,-0.886 ± 0.2

row,Variant,abundance fitness
1,Q38D,-0.937 ± 0.38
2,Q38A,-0.338 ± 0.068
3,Q38L,-0.64 ± 0.052
4,Q38N,-0.728 ± 0.24
5,Q38S,-0.676 ± 0.077
6,Q38R,-0.802 ± 0.067
7,Q38F,-0.663 ± 0.43
8,Q38C,-0.393 ± 0.15
9,Q38I,-0.733 ± 0.31
10,Q38E,-0.606 ± 0.19
11,Q38M,-0.619 ± 0.09
12,N41C,-0.459 ± 0.17
13,N41K,0.252 ± 0.093
14,N41A,-0.496 ± 0.2
15,N41D,-0.497 ± 0.2
16,N41I,-0.627 ± 0.24
17,N41H,-0.168 ± 0.16
18,N41Q,-0.402 ± 0.12
19,N41M,-0.286 ± 0.12
20,N41R,0.142 ± 0.065
21,N41S,-0.204 ± 0.1
22,N41V,-0.325 ± 0.12
23,N41G,-0.55 ± 0.12
24,N41L,-0.516 ± 0.12

row,Variant,abundance fitness
1,N41P,-0.614 ± 0.29
2,L34M,-0.186 ± 0.093
3,L34G,-0.72 ± 0.086
4,L34I,-0.445 ± 0.082
5,L34D,-0.798 ± 0.2
6,L34P,-0.75 ± 0.21
7,L34F,-0.823 ± 0.13
8,L34Q,-0.634 ± 0.15
9,L34N,-0.918 ± 0.18
10,L34H,-0.502 ± 0.33
11,L34T,-0.73 ± 0.21
12,L34W,-0.606 ± 0.097
13,L34Y,-0.778 ± 0.14
14,L34V,-0.881 ± 0.11
15,L34C,-0.834 ± 0.093
16,L34K,-0.56 ± 0.089
17,L34A,-0.72 ± 0.097
18,L34S,-0.623 ± 0.089
19,L34R,-0.847 ± 0.065
20,W42H,-0.702 ± 0.34
21,W42Y,-0.398 ± 0.05
22,W42R,-0.933 ± 0.079
23,W42A,-0.793 ± 0.052
24,W42K,-0.871 ± 0.32

row,Variant,abundance fitness
1,W42C,-0.901 ± 0.36
2,W42F,-0.764 ± 0.3
3,W42P,-1 ± 0.14
4,W42G,-0.85 ± 0.098
5,W42D,-0.722 ± 0.29
6,W42S,-1.06 ± 0.27
7,W42E,-0.893 ± 0.098
8,W42V,-0.986 ± 0.078
9,W42T,-0.461 ± 0.21
10,W42I,-0.897 ± 0.42
11,W42Q,-0.854 ± 0.083
12,V39T,-0.573 ± 0.1
13,V39K,-0.945 ± 0.19
14,V39D,-0.893 ± 0.074
15,V39P,-0.972 ± 0.12
16,V39E,-0.96 ± 0.099
17,V39R,-0.873 ± 0.064
18,V39C,-0.969 ± 0.37
19,V39A,-0.829 ± 0.088
20,V39Q,-0.78 ± 0.067
21,V39G,-0.731 ± 0.083
22,V39S,-0.916 ± 0.083
23,V39L,-0.84 ± 0.08
24,V39F,-0.848 ± 0.25

row,Variant,abundance fitness
1,V39N,-1.01 ± 0.24
2,V39H,-0.998 ± 0.32
3,V39Y,-0.897 ± 0.28
4,G40L,-0.731 ± 0.078
5,G40Y,-0.871 ± 0.23
6,G40F,-0.858 ± 0.13
7,G40K,0.097 ± 0.05
8,G40W,-0.81 ± 0.052
9,G40M,-0.621 ± 0.12
10,G40N,0.131 ± 0.099
11,G40T,-0.183 ± 0.089
12,G40R,0.008 ± 0.048
13,G40E,-0.099 ± 0.049
14,G40A,-0.146 ± 0.063
15,G40V,-0.6 ± 0.076
16,G40D,-0.227 ± 0.062
17,G40H,-0.122 ± 0.11
18,G40S,0.006 ± 0.06
19,G40I,-0.247 ± 0.15
20,G40C,-0.13 ± 0.085
21,T35V,-0.842 ± 0.05
22,T35N,-0.259 ± 0.13
23,T35D,-0.697 ± 0.096
24,T35L,-0.778 ± 0.069

row,Variant,abundance fitness
1,T35E,-0.809 ± 0.16
2,T35H,-0.763 ± 0.41
3,T35R,-0.704 ± 0.045
4,T35Q,-0.252 ± 0.21
5,T35W,-0.848 ± 0.17
6,T35M,-0.715 ± 0.067
7,T35A,-0.861 ± 0.13
8,T35K,-0.726 ± 0.14
9,T35Y,-0.826 ± 0.12
10,T35C,-0.645 ± 0.12
11,T35G,-0.827 ± 0.063
12,T35P,-0.894 ± 0.15
13,T35S,-0.044 ± 0.055
14,T35F,-0.77 ± 0.37
15,F43C,-0.755 ± 0.096
16,F43E,-0.883 ± 0.16
17,F43M,-0.782 ± 0.18
18,F43L,-0.97 ± 0.15
19,F43A,-0.96 ± 0.22
20,F43Q,-0.861 ± 0.089
21,F43S,-0.837 ± 0.073
22,F43N,-0.621 ± 0.24
23,F43K,-0.92 ± 0.16
24,F43R,-0.774 ± 0.05

row,Variant,abundance fitness
1,F43P,-0.941 ± 0.14
2,F43D,-0.816 ± 0.35
3,F43I,-0.679 ± 0.47
4,F43G,-0.956 ± 0.11
5,F43H,-0.82 ± 0.28
6,T37E,0.164 ± 0.065
7,T37R,0.014 ± 0.058
8,T37G,-0.126 ± 0.047
9,T37S,-0.186 ± 0.068
10,T37C,-0.051 ± 0.094
11,T37I,-0.184 ± 0.044
12,T37A,-0.11 ± 0.072
13,T37H,-0.099 ± 0.074
14,T37W,-0.441 ± 0.074
15,T37L,-0.255 ± 0.045
16,T37F,-0.678 ± 0.19
17,T37V,-0.091 ± 0.075
18,T37N,-0.27 ± 0.12
19,T37M,-0.055 ± 0.091
20,T37Q,0.211 ± 0.078
21,T37P,-0.416 ± 0.096
22,T37D,0.326 ± 0.081
23,G33Y,-0.978 ± 0.28
